This is an account of results in patent publication US20220356217A1.

The test has as its target human integrin αIIbβ3 on cells (K562 cells stably expressing αIIbβ3; human platelets) (human) (UniProt P08514). The test is described as follows: FACS; displacement of Alexa647-labeled soluble fibrinogen from activated αIIbβ3-K562 cells. On the technique in general: A flow cytometer gives signals particle by particle.

Broadly, the IC50 is the concentration needed to halve the response being measured. Low values mean greater potency, high ones weaker potency. Regarding eptifibatide (peptide), the IC50 is 73.2 nM.
